From publication PMC9997507

Biological target: ADAM23-Fc (UniProt Q9R1V7)
Test: pull-down; as a2 but with co-expressed LGI3 (LGI3V5/His plasmid); secreted proteins precipitated from conditioned medium with Protein A or Ni-NTA beads; Western blot, band densities quantified in triplicate for ADAM23Fc with ADAM23γHis

fold change of the interaction with LGI3 against without LGI3: 2.5 fold
Substance: ADAM23γV5/His (domain or fragment)
